Columns and labels:
SARS-CoV-2 S protein = SARS-CoV-2 S protein (SARS-CoV-2, Wuhan-Hu-1 reference, UniProt P0DTC2); test: SPR; settings: both partners purified
SARS-CoV-1 S protein = SARS-CoV-1 S protein (SARS-CoV-1, strain not named (P59594 …, UniProt P59594)); test: SPR; settings: both partners purified

B1: P14-44 (antibody, V domains shown)
VH: QVQLVQSGAEVKKPGASVKVSCKASGYIFTSYSMHWVRQAPGQGLEWMGTIKPSDDSTNYAQKFQGRVSMTRDTSTSTVYMELSSLRYEDTAVYYCAREARGYYDRSGYYHPGYFDYWGQGTLVTVSS
VL: QSVLTQPASVSGSPGQSITISCTGTSSDVGGYNFVSWYQQHPGKAPKLMIYEVSDRPSGVSSRFSGSKSGNTASLTISGLQAEDEADYYCFSYTTSTTWVFGGGTKLTVL
notes: also called P14-44 IgG; source: HEK293F, transfected, purified (Protein A)
SARS-CoV-2 S protein
  Kd: 0.55 nM
SARS-CoV-1 S protein
  Kd: 4.3 nM

From article PMC8843702 (The Journal of Clinical Investigation, 2022)
